Source: patent US7745147 (VIRANATIVE, dated 2010)

Tests used:
[1] = biological target: concentrated crude leukocyte interferon alpha; assay: capacity of immunoaffinity gel, 7 mg antibody/mL CNBr-activated Sepharose FF
human interferon alpha 1 = biological target: T1, human interferon alpha 1 (human, UniProt P0DY56 24-189); assay: immunoaffinity chromatography (Examples 1, 3, 4 and 5)
T1 construct: also called α1; IFN-α1

[2] = biological target: concentrated crude leukocyte interferon alpha; assay: pilot-scale immunoaffinity chromatography, crude interferon from lab fermenter, experiment P-434
[3] = biological target: T2, human interferon alpha 14 (human, UniProt P01570 24-189); assay: immunoaffinity column loaded with crude leukocyte interferon alpha; RP-HPLC of eluate
T2 construct: One entry serves both the natural leukocyte protein and the bought recombinant protein; also called α14; IFN-α14
Protocol: The antibodies were all bound to CNBr-activated Sepharose gel. […] Impurities and unbound material were removed from the column by washing with buffer. Interferon alpha was eluted with citric-acid buffer, pH2. Unbound, flow-through fractions, and eluate fractions were analysed for interferon alpha using a specific ELISA. The eluate fraction was analysed for its complement of interferon alpha proteins using reversed-phase HPLC (RP-HPLC). Interferon alpha specific activity was determined using a cytopathic protective effect assay with MDBK cells. All samples were analysed twice. The experiments were repeated with a second batch of concentrated crude leukocyte interferon alpha.
Rather, the interferon alpha protein pattern is compared to assess whether all the expected peaks are present.

[4] = biological target: concentrated crude leukocyte interferon alpha; assay: immunoaffinity chromatography, antibody on CNBr-Sepharose; interferon alpha ELISA of fractions
[5] = biological target: T3, human interferon alpha 16 (human, UniProt P05015 24-189); assay: 3-A3-2 immunoaffinity column, 10,000 IU load; Daudi cell anti-proliferative assay of fractions
T3 construct: also called α16; IFN-α16

human interferon alpha 5 = biological target: T4, human interferon alpha 5 (human, UniProt P01569 24-189, limits assumed); assay: as above
T4 construct: also called α5; IFN-α5

[6] = biological target: concentrated crude leukocyte interferon alpha; assay: immunoaffinity chromatography of crude leukocyte interferon alpha (Example 1)
[7] = biological target: concentrated crude leukocyte interferon alpha; assay: pilot-scale immunoaffinity chromatography, crude interferon batch K-543, experiment P-429
[8] = biological target: concentrated crude leukocyte interferon alpha; assay: immunoaffinity chromatography, antibody on CNBr-Sepharose; interferon alpha ELISA of fractions; second row for this antibody

B1: Monoclonal antibody 3-A3-2 (antibody, mouse IgG1, V domains shown)
VH: QVQLQESGTVLARPGASVKMSCKASGYSFTTYWMHWVKQRPGQGLEWIGVIYPGNGDTTYNQKFKDKAKLTAVTSANTAYMELSSLTNEDSAVYFCTRNYKYDYYTMDYWGQGTTVTVSS
VL: DIVLTQSPASLAVSLGQRATISCRASKSVSTSGHSYMHWYQQKPGQTPKLLIYLASNLESGVPARFSGSGSGTDFTLNIHPVEEEDAATYYCQHSGELPFTFGSGTKLEIK
notes: Murine IgG1/kappa from hybridoma 3-A3-2 (ECACC 05030201); also called monoclonal 3-A3-2; 3A32 Ab
interferon capacity [1]: 22.5 MIU/ml gel | binding result (human interferon alpha 1): binds | IFN-α eluate yield (%) [2]: 70% | binding result [3]: binds | Flow-through (%) [4]: 1% | eluate (IU) [4]: 16.5 IU | recovery (%) [4]: 66% | binding result [5]: binds | binding result (human interferon alpha 5): binds | Flow-through (%) [6]: < 5% | IFN-α eluate yield (%) [7]: 73% | Flow-through (%) [8]: 5% | eluate (IU) [8]: 17 IU | recovery (%) [8]: 61%
